According to US20160068605A1 (Janssen / Centocor, published 2016):
Where a chain is given by its changes, count along the chain named. Each block holds one binder with its values, some of them ahead of it.

Assays:
[1] = target: T1, Recombinant human CD123 SP1 ECD-His tag protein (human, UniProt P26951 20-305); test: SPR ProteOn, captured mAb
T1 construct: bought from R&D Systems (#301-R3/CF); biotinylated for some assays; also called rhCD123 SP1; huCD123 ECD SP1
T1 sequence: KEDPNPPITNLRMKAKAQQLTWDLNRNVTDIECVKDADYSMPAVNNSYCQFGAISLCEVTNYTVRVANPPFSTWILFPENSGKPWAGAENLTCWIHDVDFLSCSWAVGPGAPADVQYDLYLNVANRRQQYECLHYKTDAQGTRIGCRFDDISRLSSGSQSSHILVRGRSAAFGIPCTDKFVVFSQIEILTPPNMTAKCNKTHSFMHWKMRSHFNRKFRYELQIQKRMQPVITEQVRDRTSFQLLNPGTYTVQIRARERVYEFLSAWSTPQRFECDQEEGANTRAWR

[2] = target: T2, cyno CD123 ECD displayed on pDisplay-transfected cells (cynomolgus monkey); test: MSD cell binding assay, signal 3x over background
T2 construct: ECD anchored on the surface of stably transfected HEK293 cells; also called cynoCD123 SP1 cells; cynoCD123 cells
T2 chain: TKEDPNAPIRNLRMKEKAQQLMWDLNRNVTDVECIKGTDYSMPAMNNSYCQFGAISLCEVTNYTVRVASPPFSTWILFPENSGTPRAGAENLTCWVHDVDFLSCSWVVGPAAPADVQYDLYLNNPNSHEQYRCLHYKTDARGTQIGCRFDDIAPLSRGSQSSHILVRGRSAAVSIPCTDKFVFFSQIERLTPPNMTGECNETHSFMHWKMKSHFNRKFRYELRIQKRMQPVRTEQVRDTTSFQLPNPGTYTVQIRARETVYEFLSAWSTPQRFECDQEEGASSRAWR
Experimental: The object of the screening assay was to identify antibodies that bound to cells expressing hCD123 SP1 and SP2 as well as cross reactivity with cells expressing cynoCD123 SP1.
Cells were immobilized and phages were assayed in triplicate. […] 5000 cells per well were plated into a 384 well plate (MA6000, cat. L21XB, MSD) and allowed to adhere for 2 hr. Cells were then blocked with 20% FBS in PBS (Gibco) for 15 mins. Antibody supernatants were then added and left at RT for 1 hr. Cells were washed 3 times with PBS and a ruthenium labeled secondary antibody (Jackson Immuno Research) was then added at 1 μg/mL and incubated for 1 hr at room temperature. A further washing step was then applied and 35 μL per well of MSD Read buffer T (surfactant free) was then added and incubated for 30 min for detection. Plates were then read using Sector Imager 2400 (MSD). Data was normalized to controls and graphed using GraphPad Prism Version 5. A positive binder was determined to be a hit with a signal 3× greater than background (FIGS. 2A, B and C).

[3] = target: T3, Recombinant human CD123 SP2 ECD protein (human, UniProt P26951 101-303); test: SPR ProteOn, captured mAb
T3 construct: also called rhCD123 SP2; CD123 ECD SP2
T3 sequence: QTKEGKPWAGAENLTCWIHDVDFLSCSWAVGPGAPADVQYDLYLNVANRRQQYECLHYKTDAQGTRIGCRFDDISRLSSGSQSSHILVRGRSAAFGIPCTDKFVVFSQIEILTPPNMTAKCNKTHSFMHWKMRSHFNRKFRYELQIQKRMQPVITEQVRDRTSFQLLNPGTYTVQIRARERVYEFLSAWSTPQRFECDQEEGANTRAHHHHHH

[4] = target: T4, human CD123 SP2 ECD displayed on pDisplay-transfected cells (human, UniProt P26951 101-305); test: MSD-CAT on pDisplay cells
T4 construct: ECD anchored on the surface of stably transfected HEK293 cells; also called hCD123 SP2 cells; pDisplay CD123SP2
T4 sequence: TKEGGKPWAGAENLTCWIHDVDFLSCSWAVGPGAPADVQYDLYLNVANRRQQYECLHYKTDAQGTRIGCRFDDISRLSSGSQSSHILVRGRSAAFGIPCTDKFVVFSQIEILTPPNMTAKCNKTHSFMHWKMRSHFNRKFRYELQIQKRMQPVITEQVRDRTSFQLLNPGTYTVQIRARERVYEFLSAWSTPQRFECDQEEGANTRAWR
Experimental: The MSD-CAT was developed in-house as a label-free method to determine affinity using intact cells in a high throughput format. […] Cell lines used were human pDisplay CD123SP1 and pDisplay CD123SP2. […] These samples were prepared in DMEM Glutamax medium containing 0.05% Azide, 1% BSA, 3 mM EDTA. […] After equilibration the plate was centrifuged for 5 minutes ˜1000 rpm and free anti-CD3 detected on the supernatant. […] The assay buffer was removed without washing and 50 uL/well of 0.7 ug/mL of biotinylated antigen in assay buffer were added to MSD plates and incubated overnight (˜16 hours at 4° C.).

[5] = target: T1, Recombinant human CD123 SP1 ECD-His tag …; test: SPR Biacore 3000, captured mAb
Experimental: (§1) Kinetic studies were performed at 25° C. using a Biacore 3000 (BIAcore, Inc., now part of GE Healthcare). […] Sheep anti-Human Fd specific antibody (The binding site Prod # PC075) was covalently attached to two flow cells (normally 3 and 4) of the carboxymethyl dextran coated gold surfaces (CM-5 Chip, Biacore). The carboxymethyl groups of dextran were activated with N-Ethyl-N′-(3-Dimethylaminopropyl)carbodiimide (EDC) and N-hydroxysuccinimide (NHS). The antibodies were coupled at pH 4.5 in 10 mM sodium acetate. Any remaining reactive sites on the surface were blocked by reaction with ethanolamine. […] Association data was collected for 2 min followed by 10 min of dissociation. The surface was regenerated with 30 μL of 100 mM H3PO4 100 μL/min. All samples were prepared in D-PBS containing 3 mM EDTA and 0.005% surfactant P20. Data reported is the difference in SPR signal between the flow cell containing the captured antibody or Fab and a reference cell without captured antibody or Fab. Additional instrumental contributions to the signal were removed by subtraction of the data from the blank injection from the reference-subtracted signal. Data were performed in triplicate and analyzed by fitting association and dissociation phases at all concentrations (global fit) with a 1:1 binding model using the BIAevaluation software (BIAcore, Inc.). […] Data presented is an average.

[6] = target: T3, Recombinant human CD123 SP2 ECD protein; test: SPR Biacore 3000, captured mAb
Experimental: as §1

[7] = target: T5, human CD123 SP1 ECD displayed on pDisplay-transfected cells (human, UniProt P26951 20-305); test: MSD cell binding on 293F pDisplay cells; fold change over background; parental 293F cells as control
T5 construct: ECD anchored on the surface of stably transfected HEK293 cells by the PDGFR transmembrane domain; also called hCD123 SP1 cells; hCD123 cells
T5 sequence: T1 sequence

[8] = target: T4, human CD123 SP2 ECD displayed on …; test: as above
[9] = target: T2, cyno CD123 ECD displayed on …; test: as above
[10] = target: IL3RA-PK (CD123 tagged with ProLink) in HEK293 IL3RA-PK/CSF2RB-EA cells (UniProt P26951 19-378); test: cell-based or functional assay
[11] = target: T2, cyno CD123 ECD displayed on …; test: MSD-CAT on pDisplay cells
Experimental: (§2) After equilibration the plate was centrifuged for 5 min ˜1000 rpm and free anti-CD3 detected on the supernatant. […] The assay buffer was removed without washing and 50 μL/well of 0.7 μg/mL of biotinylated antigen in assay buffer were added to MSD plates and incubated overnight (˜16 hr at 4° C.). After overnight incubation, the plates were blocked by adding 150 μL/well of assay buffer without removing coating antigen, incubated for ˜1 hr at ambient temperature and washed 5 times with wash buffer (assay buffer without BSA). 50 μL/well of the supernantants from samples plate were transferred to antigen-coated plates, incubated for 60 min, and then washed three times with wash Buffer. After this 50 μL per well of ruthenium labeled detection antibody(anti-human H+L) were added and incubated for 1 hr. After 1 hr the plates were washed and 150 μL of MSD Read Buffer (prepared by diluting 1:4 of stock into d. H₂O) were added per well. The plates were read immediately on the MSD Sector Imager 6000 Reader for luminescence levels. ECL signal detected by MSD was expressed in term of % free antibody in the mixture and the data was analyzed to determine affinity using a user defined equation (derived from the law of mass action) introduced in Prism software.

[12] = target: T1, Recombinant human CD123 SP1 ECD-His tag …; test: SPR Biacore 3000, captured Fab
Experimental: as §1

[13] = target: T3, Recombinant human CD123 SP2 ECD protein; test: SPR Biacore 3000, captured Fab
Experimental: as §1

[14] = target: T5, human CD123 SP1 ECD displayed on …; test: MSD-CAT, hCD123 cells, assay-1
Experimental: as §2

[15] = target: T5, human CD123 SP1 ECD displayed on …; test: MSD-CAT, hCD123 cells, assay-2
Experimental: as §2

[16] = target: T2, cyno CD123 ECD displayed on …; test: MSD-CAT, cynoCD123 cells, assay-1
Experimental: (§3) The MSD-CAT was developed in-house as a label-free method to determine affinity using intact cells in a high throughput format. […] Cell lines used were human pDisplay CD and cyno pDisplay CD123SP1. […] These samples were prepared in DMEM Glutamax medium containing 0.05% Azide, 1% BSA, 3 mM EDTA. The receptor numbers of (3.15-4.18)×10⁶ hCD123/cell and (4.78-9.24) 10⁶ cyCD123/cell were converted to M receptor concentration in the mixture on the basis of the volume of reaction, the cell density (cells/L) and the Avogadro's number. […] After equilibration the plate was centrifuged for 5 min ˜1000 rpm and free anti-CD3 detected on the supernatant.

[17] = target: T2, cyno CD123 ECD displayed on …; test: MSD-CAT, cynoCD123 cells, assay-2
Experimental: as §3

B1: I3RB21 (antibody, IgG1, V domains shown)
VH: QVQLVQSGAEVKKPGSSVKVSCKASGGTFSSYAISWVRQAPGQGLEWMGGIIPIFGTANYAQKFQGRVTITADESTSTAYMELSSLRSEDTAVYYCAREGWWGQGKFDYWGQGTLVTVSS
VL: EIVLTQSPATLSLSPGERATLSCRASQSVANFLAWYQQKPGQAPRLLIYAASNRATGIPARFSGSGSGTDFTLTISSLEPEDFAVYYCQQYFHWPYTFGQGTKVEIK
notes: IgG1
Kd [1]: 2.19 nM | koff [1]: 0.00114 s⁻¹ | kon [1]: 521000 M⁻¹ s⁻¹ | binding result [2]: binds

B2: I3RB2 (antibody, IgG1, V domains shown)
VH: EVQLLESGGGLVQPGGSLRLSCAASGFTFSGYWMHWVRQAPGKGLEWVSAIRSDGSSKYYADSVKGRFTISRDNSKNTLYLQMNSLRAEDTAVYYCAKDGVIEDTFDYWGQGTLVTVSS
VL: B1 VL with A30S, N31S, F32Y, A50D, Y91R, F92S, H93N, Y96L
notes: IgG1; also called I3RB02; 13RB2
Kd [1]: 4.5 nM | koff [1]: 0.00477 s⁻¹ | kon [1]: 1.06e+06 M⁻¹ s⁻¹ | Kd [3]: 1.85 nM | koff [3]: 0.00335 s⁻¹ | kon [3]: 1.81e+06 M⁻¹ s⁻¹ | Kd [4]: 0.036 nM | Kd [5]: 7.7 nM | koff [5]: 0.00372 s⁻¹ | kon [5]: 481000 M⁻¹ s⁻¹ | Kd [6]: 1.4 nM

B5: I3RB119 (Fab, V domains shown)
VH: EVQLVQSGAEVKKPGESLKISCKGSGYSFTSYWISWVRQMPGKGLEWMGIIDPSDSDTRYSPSFQGQVTISADKSISTAYLQWSSLKASDTAMYYCARGDGSTDLDYWGQGTLVTVSS
VL: EIVLTQSPGTLSLSPGERATLSCRASQSVSSSYLAWYQQKPGQAPRLLIYGASSRATGIPDRFSGSGSGTDFTLTISRLEPEDFAVYYCQQDYGFPWTFGQGTKVEIK
notes: also called Fab I3RB119; I3RB18 Fab
fold weaker than to human CD123 SP1 [11]: > 10 fold | Kd [12]: 1.8 nM | koff [12]: 0.000891 s⁻¹ | kon [12]: 493000 M⁻¹ s⁻¹ | Kd [13]: 0.4 nM | Kd [14]: 0.293 nM | Kd [15]: 0.367 nM | Kd [16]: > 15 nM | Kd [17]: > 11.9 nM

Now from value to binder:

binding result [7]: no binding (tested: 10 µg/mL) | binding result [8]: no binding (tested: 10 µg/mL) | binding result [9]: no binding (tested: 10 µg/mL)
B3: I3RB25 (antibody, V domains shown)
VH: QVQLVQSGAEVKKPGSSVKVSCKASGGTFSSYGISWVRQAPGQGLEWMGGISAIFGNANYAQKFQGRVTITADESTSTAYMELSSLRSEDTAVYYCARRFKWWESYFDYWGQGTLVTVSS
VL: not shown

IC50 (read off the curve): IL-3-induced CD123/CD131 heteromerization (RLU) [10]: ~100 ng/mL
B4: I3RB217 (antibody, human IgG4 S228P, kappa, F234A L235A, V domains shown)
VH: B5 VH
VL: EIVLTQSPGTLSLSPGERATLSCRASQSVSSSYLAWYQQKPGQAPRLLIYGASSRATGIPDRFSGSGSGTDFTLTISRLEPEDFAVYYCQQDYGFPWTFGQGTKVEIKR
